Measured values reported in PMC5792442, “A comparative Study of Aptasensor Vs Immunosensor for Label-Free PSA Cancer Detection on GQDs-AuNRs Modified Screen-Printed Electrodes”.

Tests used:
[1] = target: T1, Prostate specific antigen (PSA) (UniProt P07288 25-261); assay: electrochemical impedance spectroscopy (immobilized DNA); Rct unchanged with PSA; 0.1 M PBS pH 7.4, with or without 5 mM [Fe(CN)6]3-/4-; PSA 0-11.06 ng/mL; temperature not stated; conditions: protein: commercial
[2] = target: T1, Prostate specific antigen (PSA); assay: electrochemical impedance spectroscopy, CV and DPV (immobilized aptamer); 5 mM [Fe(CN)6]3-/4-; also EIS without redox probe; LOD 0.14 ng/mL; 0.1 M PBS pH 7.4, with or without 5 mM [Fe(CN)6]3-/4-; PSA 0-11.06 ng/mL; temperature not stated; conditions: protein: commercial

T1 sequence (P07288 25-261): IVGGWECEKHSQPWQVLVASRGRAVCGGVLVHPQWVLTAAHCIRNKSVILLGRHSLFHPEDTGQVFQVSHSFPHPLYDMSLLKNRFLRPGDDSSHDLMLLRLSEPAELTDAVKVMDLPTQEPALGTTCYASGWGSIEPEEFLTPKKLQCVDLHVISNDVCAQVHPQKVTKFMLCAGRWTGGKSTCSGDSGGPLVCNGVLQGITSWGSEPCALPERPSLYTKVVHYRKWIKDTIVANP

| Binder | binding result [1] | binding result [2] |
| --- | --- | --- |
| TTTTGCCATCGGGGCCATGTTCAA (ssDNA) [random single strand DNA] | no binding |  |
| ATTAAAGCTCGCCATCAAATAGC (ssDNA) [PSA-Aptamer] |  | binds |
